Reference: patent US9551711B2, “Compositions and methods for detecting nitration of PKG-1α and methods of use thereof” (Augusta University Research Institute, Inc., priority 2013, dated 2017)
Non-standard residues stand in square brackets, D forms with d. Tyr(3-NO2) = N[C@@H](Cc1ccc(O)c([N+](=O)[O-])c1)C(=O)O

Key:
PKG-1α [1] = experiment: PKG catalytic activity, Michaelis-Menten kinetics for cGMP; type: biochemical, human; details: ATP 125 μM, cGMP 0-10 μM; + SIN1 = SIN-1 500 μM, 30 min
Protocol: Total PKG activity was determined using a non-radioactive immunoassay in cell lysates, according to the manufacturer's directions. Briefly, protein samples were diluted in kinase reaction buffer containing Mg^2+ and ATP (125 μM) in the presence or absence of 8-Br cGMP (10 μM) and incubated in a 96 well plate pre-coated with a PKG substrate containing threonine residues phosphorylated by PKG.
After incubation for 30 min at 30° C. to allow the phosphorylation of the bound substrate, an HRP conjugated anti-phosphothreonine specific antibody was added to convert a chromogenic substrate to a colorimetric substrate that was subsequently read spectrophotometrically at 450 nm. The change in absorbance reflected the relative activity of PKG in the sample. The results were reported as pmols of phosphate incorporated into the GST-G substrate fusion protein by active PKG in the sample in the presence or absence of cGMP (10 μM) per minute at 30° C. per μg of protein (pmol/min/μg). […] The kinetic constants were determined using nonlinear regression (curve fit) analysis (GraphPad Prism Software Inc.).
To determine the Michaelis-Menten constant (Km) for cGMP, the kinase assay was performed, as mentioned above; however, the cGMP concentration was titrated from 0-10 μM, while the ATP concentration remained constant at 125 μM.

PKG-1α [2] = experiment: [3H]cGMP binding assay on immunopurified PKG-1α; set-up: species or system human; details: [3H]cGMP 0-200 nM, 100 ng immunopurified enzyme; average affinity of the two cGMP-binding sites; + SIN1 = cells exposed to SIN-1 500 μM, 30 min
Protocol: HEK-293T cells were transiently transfected with either the WT-PKG-1α or the Y247FPKG-1α cDNA using Effectene transfection reagent (Qiagen), according to the manufacturer's instructions. Briefly, the cells were split the day before the transfection to low cell densities (25%) and were transfected 24 h later. After 48 h of transfection, the cells were incubated in DMEM serum free media containing 1% FBS and antibiotics for 4 h and then treated with or without SIN-1 (500 μM), for 30 min. This method produced an approximate 70% transfection efficiency of HEK-293T cells, as measured using green fluorescent protein vectors. […]
The batches of supernatant were pooled, and 2 μg of anti-PKG-1α antibody per mg of protein were added to the extract and rocked at 4° C. […] After 15 min of agitation at 4° C., the beads were pelleted by centrifugation, and the supernatant containing the PKG-1α protein was collected, quantified using Bradford reagent, and stored at −80° C.
To assay the binding of cGMP to WT- and Y247F-PKG-1α the enzymes were saturated with cGMP by incubating 50 μl aliquots of the diluted PKG constructs for 60 min at room temperature with 50 μl of [^3H]cGMP and 150 μl of cGMP-binding assay mixture (25 mM K2HPO4, 25 mM KH2PO4, 1 mM EDTA, pH 6.8, 2M NaCl, 200 μM 3-isobutyl-1-methylxanthine). […] The dissociation constant (Kd) values were determined using GraphPad Prism graphics. […]

B1: WT-PKG-1α + SIN1: WT-PKG-1α immunopurified from cells exposed to SIN-1 (500 μM, 30 min) (protein)
chain: SELEEDFAKILMLKEERIKELEKRLSEKEEEIQELKRKLHKCQSVLPVPSTHIGPRTTRAQGISAEPQTYRSFHDLRQAFRKFTKSERSKDLIKEAILDNDFMKNLELSQIQEIVDCMYPVEYGKDSCIIKEGDVGSLVYVMEDGKVEVTKEGVKLCTMGPGKVFGELAILYNCTRTATVKTLVNVKLWAIDRQCFQTIMMRTGLIKHTEYMEFLKSVPTFQSLPEEILSKLADVLEETHYENGE[Tyr(3-NO2)]IIRQGARGDTFFIISKGTVNVTREDSPSEDPVFLRTLGKGDWFGEKALQGEDVRTANVIAAEAVTCLVIDRDSFKHLIGGLDDVSNKAYEDAEAKAKYEAEAAFFANLKLSDFNIIDTLGVGGFGRVELVQLKSEESKTFAMKILKKRHIVDTRQQEHIRSEKQIMQGAHSDFIVRLYRTFKDSKYLYMLMEACLGGELWTILRDRGSFEDSTTRFYTACVVEAFAYLHSKGIIYRDLKPENLILDHRGYAKLVDFGFAKKIGFGKKTWTFCGTPEYVAPEIILNKGHDISADYWSLGILMYELLTGSPPFSGPDPMKTYNIILRGIDMIEFPKKIAKNAANLIKKLCRDNPSERLGNLKNGVKDIQKHKWFEGFNWEGLRKGTLTPPIIPSVASPTDTSNFDSFPEDNDEPPPDDNSGWDIDF
In the case of B1, the Vmax (PKG-1α [1]) is reported as 0.28 ± 0.01 pmol/min/µg and the Kd (PKG-1α [2]) is reported as 32.1 ± 5.5 nM.
